Results as given in PMC5609712 (Molecular cell, 2017).

T1: Mre11, flag-tagged, purified alone (human, UniProt P49959 1-708)
T1 sequence (looked up): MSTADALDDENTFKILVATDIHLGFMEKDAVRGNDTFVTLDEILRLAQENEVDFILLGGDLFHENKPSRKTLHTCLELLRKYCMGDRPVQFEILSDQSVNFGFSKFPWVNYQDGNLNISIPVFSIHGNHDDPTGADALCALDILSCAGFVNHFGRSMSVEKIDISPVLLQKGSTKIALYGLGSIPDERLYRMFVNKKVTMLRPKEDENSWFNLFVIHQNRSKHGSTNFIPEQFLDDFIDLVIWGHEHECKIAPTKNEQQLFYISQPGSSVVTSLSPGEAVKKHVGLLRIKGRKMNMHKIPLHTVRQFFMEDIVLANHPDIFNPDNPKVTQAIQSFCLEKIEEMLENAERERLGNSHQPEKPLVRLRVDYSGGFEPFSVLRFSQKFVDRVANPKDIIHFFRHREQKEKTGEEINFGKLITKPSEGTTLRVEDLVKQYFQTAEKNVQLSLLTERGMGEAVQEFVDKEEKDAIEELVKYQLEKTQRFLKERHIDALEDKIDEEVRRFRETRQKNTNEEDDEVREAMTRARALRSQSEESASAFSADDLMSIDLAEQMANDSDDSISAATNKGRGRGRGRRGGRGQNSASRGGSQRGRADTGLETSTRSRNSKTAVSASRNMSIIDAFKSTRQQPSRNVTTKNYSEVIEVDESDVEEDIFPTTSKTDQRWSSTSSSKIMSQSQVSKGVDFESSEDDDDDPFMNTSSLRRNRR

B1: Exonuclease 1, biotinylated, full length (enzyme, human, UniProt Q9UQ84 1-846, looked up)
chain: MGIQGLLQFIKEASEPIHVRKYKGQVVAVDTYCWLHKGAIACAEKLAKGEPTDRYVGFCMKFVNMLLSHGIKPILVFDGCTLPSKKEVERSRRERRQANLLKGKQLLREGKVSEARECFTRSINITHAMAHKVIKAARSQGVDCLVAPYEADAQLAYLNKAGIVQAIITEDSDLLAFGCKKVILKMDQFGNGLEIDQARLGMCRQLGDVFTEEKFRYMCILSGCDYLSSLRGIGLAKACKVLRLANNPDIVKVIKKIGHYLKMNITVPEDYINGFIRANNTFLYQLVFDPIKRKLIPLNAYEDDVDPETLSYAGQYVDDSIALQIALGNKDINTFEQIDDYNPDTAMPAHSRSHSWDDKTCQKSANVSSIWHRNYSPRPESGTVSDAPQLKENPSTVGVERVISTKGLNLPRKSSIVKRPRSAELSEDDLLSQYSLSFTKKTKKNSSEGNKSLSFSEVFVPDLVNGPTNKKSVSTPPRTRNKFATFLQRKNEESGAVVVPGTRSRFFCSSDSTDCVSNKVSIQPLDETAVTDKENNLHESEYGDQEGKRLVDTDVARNSSDDIPNNHIPGDHIPDKATVFTDEESYSFESSKFTRTISPPTLGTLRSCFSWSGGLGDFSRTPSPSPSTALQQFRRKSDSPTSLPENNMSDVSQLKSEESSDDESHPLREEACSSQSQESGEFSLQSSNASKLSQCSSKDSDSEESDCNIKLLDSQSDQTSKLRLSHFSKKDTPLRNKVPGLYKSSSADSLSTTKIKPLGPARASGLSKKPASIQKRKHHNAENKPGLQIKLNELWKNFGFKKDSEKLPPCKKPLSPVRDNIQLTPEAEEDIFNKPECGRVQRAIFQ
modifications: biotinylated (co-infected with a BirA virus)
B2: Exo1(NTD), catalytic Exo1 core, N-terminal domain encoding amino acids 1-352, biotinylated (domain or fragment, human, UniProt Q9UQ84 1-352, looked up)
chain: MGIQGLLQFIKEASEPIHVRKYKGQVVAVDTYCWLHKGAIACAEKLAKGEPTDRYVGFCMKFVNMLLSHGIKPILVFDGCTLPSKKEVERSRRERRQANLLKGKQLLREGKVSEARECFTRSINITHAMAHKVIKAARSQGVDCLVAPYEADAQLAYLNKAGIVQAIITEDSDLLAFGCKKVILKMDQFGNGLEIDQARLGMCRQLGDVFTEEKFRYMCILSGCDYLSSLRGIGLAKACKVLRLANNPDIVKVIKKIGHYLKMNITVPEDYINGFIRANNTFLYQLVFDPIKRKLIPLNAYEDDVDPETLSYAGQYVDDSIALQIALGNKDINTFEQIDDYNPDTAMPAHSR
B3: Nbs1, flag-tagged, purified alone (natural protein, human, UniProt O60934 1-754, looked up)
chain: MWKLLPAAGPAGGEPYRLLTGVEYVVGRKNCAILIENDQSISRNHAVLTANFSVTNLSQTDEIPVLTLKDNSKYGTFVNEEKMQNGFSRTLKSGDGITFGVFGSKFRIEYEPLVACSSCLDVSGKTALNQAILQLGGFTVNNWTEECTHLVMVSVKVTIKTICALICGRPIVKPEYFTEFLKAVESKKQPPQIESFYPPLDEPSIGSKNVDLSGRQERKQIFKGKTFIFLNAKQHKKLSSAVVFGGGEARLITEENEEEHNFFLAPGTCVVDTGITNSQTLIPDCQKKWIQSIMDMLQRQGLRPIPEAEIGLAVIFMTTKNYCDPQGHPSTGLKTTTPGPSLSQGVSVDEKLMPSAPVNTTTYVADTESEQADTWDLSERPKEIKVSKMEQKFRMLSQDAPTVKESCKTSSNNNSMVSNTLAKMRIPNYQLSPTKLPSINKSKDRASQQQQTNSIRNYFQPSTKKRERDEENQEMSSCKSARIETSCSLLEQTQPATPSLWKNKEQHLSENEPVDTNSDNNLFTDTDLKSIVKNSASKSHAAEKLRSNKKREMDDVAIEDEVLEQLFKDTKPELEIDVKVQKQEEDVNVRKRPRMDIETNDTFSDEAVPESSKISQENEIGKKRELKEDSLWSAKEISNNDKLQDDSEMLPKKLLLTEFRSLVIKNSTSRNPSGINDDYGQLKNFKKFKKVTYPGAGKLPHIIGGSDLIAHHARKNTELEEWLRQEMEVQNQHAKEESLADDLFRYNPYLKRRR

Legend:
Assay in all cases: pull-down
[1] = target: Mre11-Rad50-Nbs1 complex (triple flag on Mre11) (human, UniProt P49959 1-708; Q92878 1-1312; O60934 1-754)
Chain of Mre11-Rad50-Nbs1 complex (triple flag on Mre11) (Q92878 whole entry, one chain of several): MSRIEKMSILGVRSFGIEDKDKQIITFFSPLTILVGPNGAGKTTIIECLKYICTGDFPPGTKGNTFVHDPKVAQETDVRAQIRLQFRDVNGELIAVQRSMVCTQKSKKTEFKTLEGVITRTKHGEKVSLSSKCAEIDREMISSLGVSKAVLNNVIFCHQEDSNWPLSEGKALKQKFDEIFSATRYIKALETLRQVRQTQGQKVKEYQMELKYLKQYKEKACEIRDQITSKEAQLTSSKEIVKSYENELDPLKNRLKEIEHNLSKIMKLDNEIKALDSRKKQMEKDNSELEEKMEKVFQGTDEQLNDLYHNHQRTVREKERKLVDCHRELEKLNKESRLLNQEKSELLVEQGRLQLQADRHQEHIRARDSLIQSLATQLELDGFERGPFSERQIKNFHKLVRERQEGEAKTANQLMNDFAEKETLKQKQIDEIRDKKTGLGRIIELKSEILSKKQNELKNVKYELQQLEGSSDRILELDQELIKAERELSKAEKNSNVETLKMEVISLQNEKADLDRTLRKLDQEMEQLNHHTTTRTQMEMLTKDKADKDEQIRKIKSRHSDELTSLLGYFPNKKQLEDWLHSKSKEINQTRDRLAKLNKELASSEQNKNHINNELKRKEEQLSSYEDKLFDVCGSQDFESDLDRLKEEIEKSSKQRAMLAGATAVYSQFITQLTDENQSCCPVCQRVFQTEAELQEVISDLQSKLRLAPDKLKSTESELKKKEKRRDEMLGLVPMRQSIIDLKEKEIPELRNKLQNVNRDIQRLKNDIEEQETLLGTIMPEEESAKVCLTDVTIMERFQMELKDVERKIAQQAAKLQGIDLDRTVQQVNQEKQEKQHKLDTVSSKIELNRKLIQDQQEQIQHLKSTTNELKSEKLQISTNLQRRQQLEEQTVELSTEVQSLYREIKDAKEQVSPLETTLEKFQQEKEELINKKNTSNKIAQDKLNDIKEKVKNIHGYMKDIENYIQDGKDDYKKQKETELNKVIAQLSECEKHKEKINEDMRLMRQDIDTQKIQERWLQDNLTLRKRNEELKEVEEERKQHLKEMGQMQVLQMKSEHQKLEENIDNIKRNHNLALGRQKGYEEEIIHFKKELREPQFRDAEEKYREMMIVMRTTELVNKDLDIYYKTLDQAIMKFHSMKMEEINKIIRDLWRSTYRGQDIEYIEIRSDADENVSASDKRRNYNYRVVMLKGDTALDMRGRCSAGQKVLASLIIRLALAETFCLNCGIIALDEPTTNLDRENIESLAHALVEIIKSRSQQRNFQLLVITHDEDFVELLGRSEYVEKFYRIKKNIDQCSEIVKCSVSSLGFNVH

[2] = target: T1, Mre11, flag-tagged, purified alone
[3] = target: B1

**Q.** Does B1 bind [1]?
**A.** Result: binds

**Q.** Does B2 bind [2]?
**A.** Result: binds

**Q.** Does B3 bind [3]?
**A.** Result: binds
